Source: paper PMC8202330, “Phosphorylation of the LIR Domain of SCOC Modulates ATG8 Binding Affinity and Specificity” (Journal of Molecular Biology, 2021)
Each block holds one substance with its values, some of them ahead of it.

Columns and labels:
[1] = target: SCOC aa 11–25 LIR peptide (human); assay: BLI; biotinylated LIR peptide immobilized on streptavidin biosensor, ATG8 in solution; 25 mM Tris pH 7.5, 150 mM NaCl, 0.5 mM TCEP, 0.1% Tween20, 1 mg/ml BSA; 25 °C; Kd from response against concentration
[2] = target: SCOC aa 6–18 LIR peptide (human); assay: as above
[3] = target: SCOC pS12 LIR peptide (human); assay: as above
SCOC pS12 LIR peptide (human), sequence (peptide, as listed by the source): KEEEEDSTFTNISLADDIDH

[4] = target: SCOC LIR peptide phosphorylated at S12 and S18 (BLI) (human); assay: as above
[5] = target: GABARAP (UniProt O95166); assay: bio-layer interferometry, immobilised biotin peptide; conditions: reference: unphosphorylated WT peptide
GABARAP, sequence (O95166 whole entry, looked up): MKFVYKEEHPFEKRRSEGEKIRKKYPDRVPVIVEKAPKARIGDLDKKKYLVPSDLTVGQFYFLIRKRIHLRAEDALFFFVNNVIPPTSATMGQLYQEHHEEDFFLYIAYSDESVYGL

[6] = target: GABARAPL1 (UniProt Q9H0R8); assay: as above; conditions: reference: unphosphorylated WT peptide
GABARAPL1, sequence (Q9H0R8 whole entry, looked up): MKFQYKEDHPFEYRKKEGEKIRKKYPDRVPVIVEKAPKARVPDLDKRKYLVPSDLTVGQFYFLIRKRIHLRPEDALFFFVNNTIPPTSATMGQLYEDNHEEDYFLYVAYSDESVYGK

[7] = target: GABARAPL2 (UniProt P60520); assay: as above; conditions: reference: unphosphorylated WT peptide
GABARAPL2, sequence (P60520 whole entry, looked up): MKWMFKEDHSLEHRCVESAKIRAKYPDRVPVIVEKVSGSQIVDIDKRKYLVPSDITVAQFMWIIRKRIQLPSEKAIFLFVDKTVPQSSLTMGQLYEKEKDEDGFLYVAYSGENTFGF

[8] = target: LC3A (UniProt Q9H492); assay: as above; conditions: reference: unphosphorylated WT peptide
[9] = target: LC3B (UniProt Q9GZQ8); assay: as above; conditions: reference: unphosphorylated WT peptide
[10] = target: LC3C (UniProt Q9BXW4); assay: as above; conditions: reference: unphosphorylated WT peptide
LC3C, sequence (Q9BXW4 whole entry, looked up): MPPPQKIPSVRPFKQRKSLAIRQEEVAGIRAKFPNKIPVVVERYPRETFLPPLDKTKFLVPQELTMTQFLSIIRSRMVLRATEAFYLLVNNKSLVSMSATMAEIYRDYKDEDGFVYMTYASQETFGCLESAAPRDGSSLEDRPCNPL

GABARAPL1 (for BLI), sequence (Q9H0R8 whole entry): as the sequence (Q9H0R8 whole entry, looked up) above
LC3C (for BLI), sequence (Q9BXW4 1-126): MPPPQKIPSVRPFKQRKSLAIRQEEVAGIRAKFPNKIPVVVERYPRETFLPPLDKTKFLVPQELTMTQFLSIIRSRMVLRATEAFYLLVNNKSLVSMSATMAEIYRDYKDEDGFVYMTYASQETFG

Substance: LC3A (for BLI) (from UniProt Q9H492 1-121) (natural protein)
- fold increase in affinity over SCOC WT LIR peptide [4]: 17 fold

Substance: LC3C (for BLI) (from UniProt Q9BXW4 1-126) (natural protein)
- fold increase in affinity over SCOC WT LIR peptide [4]: 21 fold

Substance: SCOC (isoform 3) LIR domain, 6-25 (from UniProt Q9UIL1-2) pS12/pS18 peptide
- fold change ([5]; sites S12,S18): stronger
- fold change ([6]; sites S12,S18): stronger
- fold change ([7]; sites S12,S18): stronger
- fold change ([8]; sites S12,S18): stronger
- fold change ([9]; sites S12,S18): stronger
- fold change ([10]; sites S12,S18): stronger

Substance: SCOC (isoform 3) LIR domain, 6-25 (from UniProt Q9UIL1-2) pT15 peptide
- fold change ([5]; sites T15): same
- fold change ([6]; sites T15): same
- fold change ([7]; sites T15): same
- fold change ([8]; sites T15): stronger
- fold change ([9]; sites T15): stronger
- fold change ([10]; sites T15): stronger

Now from value to substance:

- fold decrease in affinity against SCOC WT LIR peptide [1]: 104 fold
- fold decrease in affinity against SCOC WT LIR peptide [2]: 4 fold
- fold increase in affinity over SCOC WT LIR peptide [3]: 2 fold
Substance: GABARAPL1 (for BLI) (from UniProt Q9H0R8 1-117) (natural protein)

- fold change ([5]; sites S12): stronger
- fold change ([6]; sites S12): stronger
- fold change ([7]; sites S12): stronger
- fold change ([8]; sites S12): stronger
- fold change ([9]; sites S12): stronger
- fold change ([10]; sites S12): stronger
Substance: SCOC (isoform 3) LIR domain, 6-25 (from UniProt Q9UIL1-2) pS12 peptide

- fold change ([5]; sites S12,T15): stronger
- fold change ([6]; sites S12,T15): stronger
- fold change ([7]; sites S12,T15): stronger
- fold change ([8]; sites S12,T15): stronger
- fold change ([9]; sites S12,T15): stronger
- fold change ([10]; sites S12,T15): stronger
Substance: SCOC (isoform 3) LIR domain, 6-25 (from UniProt Q9UIL1-2) pS12/pT15 peptide

- fold change ([5]; sites S18): same
- fold change ([6]; sites S18): same
- fold change ([7]; sites S18): same
- fold change ([8]; sites S18): stronger
- fold change ([9]; sites S18): stronger
- fold change ([10]; sites S18): stronger
Substance: SCOC (isoform 3) LIR domain, 6-25 (from UniProt Q9UIL1-2) pS18 peptide

- binding against the reference ([5]; sites T13): same
- binding against the reference ([6]; sites T13): same
- binding against the reference ([7]; sites T13): same
- binding against the reference ([9]; sites T13): same
- binding against the reference ([10]; sites T13): same
Substance: SCOC (isoform 3) LIR domain, 6-25 (from UniProt Q9UIL1-2) pT13 peptide
